Results taken from PMC6368608.
pKd: −log10 of the molar value.

Columns and labels:
CH103 (human) [1] = test: SPR
[2] = biological target: CH103 lineage intermediate I3 (human); test: SPR
[3] = biological target: CH103 lineage intermediate I8 (human); test: SPR
CH103-S14P (human) [4] = test: SPR
CH103-S14P/G30S (human) [5] = test: SPR
CH106 (human) [6] = test: SPR
CH103 (human) [7] = test: SPR; BIAcore T200; […]) 5 min at 50 µL/min, 10 min dissociation; […]; global 1:1 Langmuir fit; […]
CH106 (human) [8] = test: as above
[9] = biological target: I3 (CH103 lineage intermediate) (human); test: as above
[10] = biological target: I8 (CH103 lineage intermediate) (human); test: as above
CH103 (human) [11] = test: BLI; […] (AHC) […]; 1:1 model; […]
CH103 UCA (human) [12] = test: BLI; […] (AHC) […]; 1:1 model; […]
CH103-S14P/G30S (human) [13] = test: BLI; […] (AHC) […]; 1:1 model; […]
CH106 (human) [14] = test: BLI; […] (AHC) […]; 1:1 model; […]
I4-S14P/G30S (human) [15] = test: BLI; […] (AHC) […]; 1:1 model; […]
UCA-P14S (human) = test: BLI; […] (AHC) […]; 1:1 model; […]
UCA-S30G (human) = test: BLI; […] (AHC) […]; 1:1 model; […]
UCA-S30G/S31G (human) = test: BLI; […] (AHC) […]; 1:1 model; […]
CH103 (human) [16] = test: BLI; […]; mAb (20 ug/mL in PBS) […] (AHC) […], association 400 s, […]; 1:1 model; […]
CH103 UCA (human) [17] = test: as above
CH103 UCA-P14S (human) = test: as above
CH103 UCA-S30G (human) = test: as above
[18] = biological target: CH103 UCA-S30G/S31G (human); test: as above
CH103-S14P (human) [19] = test: as above
CH103-S14P/G30S (human) [20] = test: as above
CH106 (human) [21] = test: as above
I4-S14P (human) = test: as above
I4-S14P/G30S (human) [22] = test: as above
[23] = biological target: C.CH505TF SOSIP.664.v4.1 (HIV-1 (C.CH505 transmitted/founder))
[24] = biological target: C.CH505TF gp120 (HIV-1 clade C, CH505 transmitted/founder) (UniProt M4M0W3); test: SPR

CH103-S14P (human), sequence (heavy, as listed by the source, chain 1 of 2): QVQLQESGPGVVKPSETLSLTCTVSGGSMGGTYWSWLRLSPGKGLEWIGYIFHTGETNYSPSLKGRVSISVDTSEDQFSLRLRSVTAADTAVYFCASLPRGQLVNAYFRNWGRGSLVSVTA
CH103-S14P (human), sequence (light, as listed by the source, chain 2 of 2): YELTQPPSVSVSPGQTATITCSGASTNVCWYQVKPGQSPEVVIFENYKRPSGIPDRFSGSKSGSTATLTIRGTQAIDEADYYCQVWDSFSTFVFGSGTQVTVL
CH103 (human), sequence (heavy, as listed by the source, chain 1 of 2): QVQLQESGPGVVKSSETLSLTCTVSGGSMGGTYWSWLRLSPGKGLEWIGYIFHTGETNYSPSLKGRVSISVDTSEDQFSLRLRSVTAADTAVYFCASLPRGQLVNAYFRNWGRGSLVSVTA
CH103-S14P/G30S (human), sequence (heavy, as listed by the source, chain 1 of 2): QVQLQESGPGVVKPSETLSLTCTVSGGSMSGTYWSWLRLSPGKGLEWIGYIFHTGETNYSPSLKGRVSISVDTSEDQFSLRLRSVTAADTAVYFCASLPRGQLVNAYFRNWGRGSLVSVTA
CH106 (human), sequence (heavy, as listed by the source, chain 1 of 2): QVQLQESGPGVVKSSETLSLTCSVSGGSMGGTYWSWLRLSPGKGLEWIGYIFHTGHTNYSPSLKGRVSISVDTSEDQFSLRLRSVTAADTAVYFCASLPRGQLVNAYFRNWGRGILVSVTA
CH106 (human), sequence (light, as listed by the source, chain 2 of 2): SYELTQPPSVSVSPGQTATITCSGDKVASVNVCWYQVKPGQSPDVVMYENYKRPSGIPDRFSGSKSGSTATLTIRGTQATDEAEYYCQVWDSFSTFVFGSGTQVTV

Substance: B.63521 D11 gp120 (domain or fragment)
- koff (CH103 (human) [1]): 2e-05 s⁻¹
- kon (CH103 (human) [1]): 15000 M⁻¹ s⁻¹
- koff [2]: 0.0225 s⁻¹
- kon [2]: 5300 M⁻¹ s⁻¹
- pKd [3]: 3.17
- koff [3]: 0.113 s⁻¹
- pKd (CH103-S14P (human) [4]): 8.68
- koff (CH103-S14P (human) [4]): 2e-05 s⁻¹
- kon (CH103-S14P (human) [4]): 9100 M⁻¹ s⁻¹
- pKd (CH103-S14P/G30S (human) [5]): 8.40
- koff (CH103-S14P/G30S (human) [5]): 2.9e-05 s⁻¹
- kon (CH103-S14P/G30S (human) [5]): 8210 M⁻¹ s⁻¹
- koff (CH106 (human) [6]): 0.000229 s⁻¹
- kon (CH106 (human) [6]): 16000 M⁻¹ s⁻¹
- pKd (CH103 (human) [7]): 8.96
- pKd (CH106 (human) [8]): 7.85
- pKd [9]: 5.38
- fold faster ka than I8 [9]: > 50 fold
- kon [10]: 170 M⁻¹ s⁻¹

Substance: C.CH505TF SOSIP.664.v4.1 (complex)
- pKd (CH103 (human) [11]): 7.80
- pKd (CH103 UCA (human) [12]): 5.82
- pKd (CH103-S14P/G30S (human) [13]): 6.82
- pKd (CH106 (human) [14]): 8.30
- pKd (I4-S14P/G30S (human) [15]): 6.80
- pKd (UCA-P14S (human)): 5.77
- pKd (UCA-S30G (human)): 5.74
- pKd (UCA-S30G/S31G (human)): 6.10

Substance: C.CH505TF.SOSIP.664.v4.1 (complex)
- koff (CH103 (human) [16]): 1.5e-05 s⁻¹
- kon (CH103 (human) [16]): 930 M⁻¹ s⁻¹
- koff (CH103 UCA (human) [17]): 0.00168 s⁻¹
- kon (CH103 UCA (human) [17]): 1100 M⁻¹ s⁻¹
- koff (CH103 UCA-P14S (human)): 0.0015 s⁻¹
- kon (CH103 UCA-P14S (human)): 900 M⁻¹ s⁻¹
- koff (CH103 UCA-S30G (human)): 0.0015 s⁻¹
- kon (CH103 UCA-S30G (human)): 860 M⁻¹ s⁻¹
- koff [18]: 0.0012 s⁻¹
- kon [18]: 1400 M⁻¹ s⁻¹
- pKd (CH103-S14P (human) [19]): 7.70
- koff (CH103-S14P (human) [19]): 1.8e-05 s⁻¹
- kon (CH103-S14P (human) [19]): 890 M⁻¹ s⁻¹
- koff (CH103-S14P/G30S (human) [20]): 6.6e-05 s⁻¹
- kon (CH103-S14P/G30S (human) [20]): 450 M⁻¹ s⁻¹
- koff (CH106 (human) [21]): 3.6e-06 s⁻¹
- kon (CH106 (human) [21]): 670 M⁻¹ s⁻¹
- pKd (I4-S14P (human)): 6.96
- koff (I4-S14P (human)): 0.00027 s⁻¹
- kon (I4-S14P (human)): 2460 M⁻¹ s⁻¹
- koff (I4-S14P/G30S (human) [22]): 0.00034 s⁻¹
- kon (I4-S14P/G30S (human) [22]): 2120 M⁻¹ s⁻¹

Substance: CH103 (antibody)
- IC80 of neutralisation of the autologous CH505TF Env-pseudovirus, TZM-bl cells (Env on the virus, not the SOSIP trimer) [23]: 6.4 µg/mL

Substance: CH103-S14P (antibody)
- IC80 of neutralisation of the autologous CH505TF Env-pseudovirus, TZM-bl cells (Env on the virus, not the SOSIP trimer) [23]: 12.8 µg/mL

Substance: CH103-S14P/G30S (antibody)
- IC80 of neutralisation of the autologous CH505TF Env-pseudovirus, TZM-bl cells (Env on the virus, not the SOSIP trimer) [23]: 15.5 µg/mL

Substance: I4-S14P (antibody)
- IC50 of neutralisation of the autologous CH505TF Env-pseudovirus, TZM-bl cells (Env on the virus, not the SOSIP trimer) [23]: 14.8 µg/mL
- IC80 of neutralisation of the autologous CH505TF Env-pseudovirus, TZM-bl cells (Env on the virus, not the SOSIP trimer) [23]: > 50 µg/mL
- pKd [24]: 7.40
- koff [24]: 0.00053 s⁻¹
- kon [24]: 13100 M⁻¹ s⁻¹

Substance: I4-S14P/G30S (antibody)
- IC50 of neutralisation of the autologous CH505TF Env-pseudovirus, TZM-bl cells (Env on the virus, not the SOSIP trimer) [23]: 43.2 µg/mL
- IC80 of neutralisation of the autologous CH505TF Env-pseudovirus, TZM-bl cells (Env on the virus, not the SOSIP trimer) [23]: > 50 µg/mL
- pKd [24]: 7.00
- koff [24]: 0.00101 s⁻¹
- kon [24]: 10000 M⁻¹ s⁻¹
